Data on 23 molecules can be found in US20210388110A1 (published 2021).

This assay concerns the target T1, soluble human CD3ε chain (human, UniProt P07766 23-126, limits assumed).
T1 construct: also called human CD3 epsilon chain
The assay is described as follows: SPR (Biacore), soluble human CD3ε chain. (In general: SPR reads the build-up and loss of mass on a sensor chip optically.)

Positions count from the first letter of the chain named.

T1 sequence (P07766 23-126 limits assumed): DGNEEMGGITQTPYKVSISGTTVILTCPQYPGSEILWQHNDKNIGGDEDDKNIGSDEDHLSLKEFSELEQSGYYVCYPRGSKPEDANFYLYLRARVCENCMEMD

B1: TR01H011-E22Hh/none-Hi-Kn010G3/L0000-k0 (antibody, human IgG1, kappa, L234A L235A, N297A)
heavy: QVQLVESGGGLVQPGRSLRLSCAASGFTFSNAWMHWVRQAPGKGLEWVAQIKAKSNNYATYYAESVKGRFTISRADSKNSIYLQMNSLKTEDTAVYYCRYVHYGASYGVDIWGQGTTVTVSSASTKGPSVFPLAPSSKSTSGGTAALGCLVKDYFPEPVTVSWNSGALTSGVHTFPAVLQSSGLYSLSSVVTVPSSSLGTQTYICNVNHKPSNTKVDKKVEPKSCDKTHTCPPCPAPEAAGGPSVFLFPPKPKDTLMISRTPEVTCVVVDVSHEDPEVKFNWYVDGVEVHNAKTKPREEQYASTYRVVSVLTVLHQDWLNGKEYKCKVSNKALPAPIEKTISKAKGQPREPQVYTLPPSRCELTKNQVSLSCAVKGFYPSDIAVEWESNGQPENNYKTTPPVLDSDGSFFLVSKLTVDKSRWQQGNVFSCSVMHEALHNHYTQKSLSLSPDYKDDDDK
chain: EPKSSDKTHTCPPCPAPELLGGPSVFLFPPKPKDTLMISRTPEVTCVVVDVSHEDPEVKFNWYVDGVEVHNAKTKPREEQYNSTYRVVSVLTVLHQDWLNGKEYKCKVSNKALPAPIEKTISKAKGQPREPQVCTLPPSRDELTKNQVSLWCLVKGFYPSDIAVEWESNGQPENNYKTTPPVLDSDGSFFLYSKLTVDKSRWQQGNVFSCSVMHEALHNRYTQKSLSLSP
light: DIVMTQSPLSLPVTPGEPASISCRSSQSLVHSNRNTYLHWYQQKPGQAPRLLIYKVSNRFSGVPDRFSGSGSGTDFTLKISRVEAEDVGVYYCGQGTQVPYTFGQGTKLEIKRTVAAPSVFIFPPSDEQLKSGTASVVCLLNNFYPREAKVQWKVDNALQSGNSQESVTEQDSKDSTYSLSSTLTLSKADYEKHKVYACEVTHQGLSSPVTKSFNRGEC
notes: one-arm antibody (single Fab) with Fab-less hinge-Fc chain Hi-Kn010G3
Molecule B1 displayed a dissociation constant Kd of 37.1 nM.

B2: TR01H040-E22Hh/none-Hi-Kn010G3/TR01L007-k0 (antibody, human IgG1, kappa, L234A L235A, N297A)
heavy: B1 heavy with A53D, N56Q, G104S, I111A
chain: B1 chain
light: B1 light with R24Q, S25A, Q27E, Q42L, A48S, R50Q
notes: as for B1
With B2, the dissociation constant Kd came to 68.2 nM.

B3: TR01H024-E22Hh/none-Hi-Kn010G3/L0000-k0 (antibody, human IgG1, kappa, L234A L235A, N297A)
heavy: B1 heavy with R16G, A53G, N56Q, G104S, I111A
chain: B1 chain
light: B1 light
notes: as for B1
In turn, B3 registered a Kd of 108 nM.

B4: TR01H040-E22Hh/none-Hi-Kn010G3/L0227-k0 (antibody, human IgG1, kappa, L234A L235A, N297A)
heavy: B1 heavy with A53D, N56Q, G104S, I111A
chain: B1 chain
light: B1 light with L29P, L38I, G94L
notes: as for B1
Regarding B4, binding was characterised by a dissociation constant (Kd) of 101 nM.

B5: TR01H034-E22Hh/none-Hi-Kn010G3/L0000-k0 (antibody, human IgG1, kappa, L234A L235A, N297A)
heavy: B1 heavy with A53G, N56Q, G104S, I111A
chain: B1 chain
light: B1 light
notes: as for B1
The molecule B5 displayed a Kd of 91.1 nM.

B6: TR01H056-E22Hh/none-Hi-Kn010G3/L0000-k0 (antibody, human IgG1, kappa, L234A L235A, N297A)
heavy: B1 heavy with A53D, N56Q, A75D, I81L, G104S
chain: B1 chain
light: B1 light
notes: as for B1
Molecule B6 came in with a Kd of 73.2 nM. This Kd and that of the molecule before are within 1.5-fold of each other.

B7: TR01H057-E22Hh/none-Hi-Kn010G3/L0000-k0 (antibody, human IgG1, kappa, L234A L235A, N297A)
heavy: B1 heavy with A53D, N56Q, A75D, I81L, G104S, I111A
chain: B1 chain
light: B1 light
notes: as for B1
B7 registered a dissociation constant (Kd) of 112 nM.

B8: TR01H067-E22Hh/none-Hi-Kn010G3/L0011-k0 (antibody, human IgG1, kappa, L234A L235A, N297A)
heavy: B1 heavy with A53D, N56Q, A75D, I81L, G104A, I111A
chain: B1 chain
light: B1 light with S28P
notes: as for B1
Regarding B8, binding was put at a Kd of 71.8 nM.

B9: TR01H015-E22Hh/none-Hi-Kn010G3/TR01L002-k0 (antibody, human IgG1, kappa, L234A L235A, N297A)
heavy: B1 heavy with A53G, G104S
chain: B1 chain
light: B1 light with Q42L, A48S, R50Q
notes: as for B1
B9 showed a dissociation constant Kd of 71.4 nM.

B10: TR01H035-E22Hh/none-Hi-Kn010G3/L0000-k0 (antibody, human IgG1, kappa, L234A L235A, N297A)
heavy: B1 heavy with A53G, N56Q, G104S, I111Y
chain: B1 chain
light: B1 light
notes: as for B1
Molecule B10 came in with a Kd of 84.9 nM.

B11: TR01H021-E22Hh/none-Hi-Kn010G3/L0000-k0 (antibody, human IgG1, kappa, L234A L235A, N297A)
heavy: B1 heavy with A53G, G104S, I111A
chain: B1 chain
light: B1 light
notes: as for B1
On to B11, for which the dissociation constant Kd was 80.5 nM.

B12: TR01H040-E22Hh/none-Hi-Kn010G3/L0248-k0 (antibody, human IgG1, kappa, L234A L235A, N297A)
heavy: B1 heavy with A53D, N56Q, G104S, I111A
chain: B1 chain
light: B1 light with S25P, L29P, L38I, H39Q, G94Y
notes: as for B1
Consider B12, for which the dissociation constant Kd is 78.9 nM.

B13: TR01H040-E22Hh/none-Hi-Kn010G3/L0247-k0 (antibody, human IgG1, kappa, L234A L235A, N297A)
heavy: B1 heavy with A53D, N56Q, G104S, I111A
chain: B1 chain
light: B1 light with L29P, L38I, H39Q, G94I
notes: as for B1
Molecule B13 came in with a Kd of 100 nM.

B14: TR01H023-E22Hh/none-Hi-Kn010G3/L0000-k0 (antibody, human IgG1, kappa, L234A L235A, N297A)
heavy: B1 heavy with R16G, A53G, N56Q, G104S
chain: B1 chain
light: B1 light
notes: as for B1
In turn, B14 displayed a Kd of 79.4 nM.

B15: TR01H022-E22Hh/none-Hi-Kn010G3/L0000-k0 (antibody, human IgG1, kappa, L234A L235A, N297A)
heavy: B1 heavy with R16G, A53G, N56Q, E64P, G104S
chain: B1 chain
light: B1 light
notes: as for B1
For the molecule B15, binding was put at a Kd of 75.8 nM. This Kd and that of the molecule before are within 1.5-fold of each other.

B16: TR01H031-E22Hh/none-Hi-Kn010G3/L0000-k0 (antibody, human IgG1, kappa, L234A L235A, N297A)
heavy: B1 heavy with L11V, R16G, A53G, G104S
chain: B1 chain
light: B1 light
notes: as for B1
B16 displayed a Kd of 75.5 nM.

B17: TR01H053-E22Hh/none-Hi-Kn010G3/L0000-k0 (antibody, human IgG1, kappa, L234A L235A, N297A)
heavy: B1 heavy with A53D, N56Q, I81L, G104S, I111A
chain: B1 chain
light: B1 light
notes: as for B1
In the case of B17, binding was put at a Kd of 82.3 nM.

B18: TR01H040-E22Hh/none-Hi-Kn010G3/L0246-k0 (antibody, human IgG1, kappa, L234A L235A, N297A)
heavy: B1 heavy with A53D, N56Q, G104S, I111A
chain: B1 chain
light: B1 light with L29P, L38I, H39Q, G94S
notes: as for B1
For B18, the Kd was 92.8 nM.

B19: TR01H058-E22Hh/none-Hi-Kn010G3/L0000-k0 (antibody, human IgG1, kappa, L234A L235A, N297A)
heavy: B1 heavy with A53D, N56Q, A75D, I81L, G104S, I111Y
chain: B1 chain
light: B1 light
notes: as for B1
For B19, the Kd is 115 nM.

B20: TR01H054-E22Hh/none-Hi-Kn010G3/L0000-k0 (antibody, human IgG1, kappa, L234A L235A, N297A)
heavy: B1 heavy with A53D, N56Q, I81L, G104S, I111Y
chain: B1 chain
light: B1 light
notes: as for B1
B20 returned a Kd of 77.9 nM. The Kd values of the last two molecules are within 1.5-fold of each other.

B21: TR01H040-E22Hh/none-Hi-Kn010G3/L0226-k0 (antibody, human IgG1, kappa, L234A L235A, N297A)
heavy: B1 heavy with A53D, N56Q, G104S, I111A
chain: B1 chain
light: B1 light with L29P, L38I, G94I
notes: as for B1
In the case of B21, the Kd was determined as 80.1 nM.

B22: TR01H015-E22Hh/none-Hi-Kn010G3/TR01L004-k0 (antibody, human IgG1, kappa, L234A L235A, N297A)
heavy: B1 heavy with A53G, G104S
chain: B1 chain
light: B1 light with R24Q, S25A, Q27E, L109V, K112E
notes: as for B1
As to B22, the Kd is 73.4 nM.

B23: TR01H040-E22Hh/none-Hi-Kn010G3/L0249-k0 (antibody, human IgG1, kappa, L234A L235A, N297A)
heavy: B1 heavy with A53D, N56Q, G104S, I111A
chain: B1 chain
light: B1 light with S25P, L29P, L38I, H39Q, G94S
notes: as for B1
The molecule B23 displayed an equilibrium dissociation constant (Kd) of 111 nM.

By Kd is commonly meant a measure of binding affinity in units of concentration. A high value points to lower affinity.
